Results as given in PMC6033852.

Columns and labels:
[1] = biological target: Class F flavodiiron protein CD1623 from Clostridium difficile 630 (FDP_F) (Clostridium difficile 630); experiment: SEC; each protein loaded separately at room temperature on a 25 mL Superdex S-200 10/300 GL column; 20 mM Tris-HCl pH 7.5, 18% glycerol, 150 mM NaCl; calibrated with mass standards; data not shown
[2] = biological target: C-terminal domains of the flavodiiron protein CD1623 from Clostridium difficile 630 (FDP_F_Cter), residues 401-843 (Clostridium difficile 630); experiment: as above

stoichiometry N [1] | stoichiometry N [2] | Substance
2 |  | Class F flavodiiron protein CD1623 from Clostridium difficile 630 (FDP_F) (enzyme)
 | 2 | C-terminal domains of the flavodiiron protein CD1623 from Clostridium difficile 630 (FDP_F_Cter), residues 401-843 (domain or fragment)
